Measurements from the supplement of paper PMC12764529.
± gives the half width of the 95% confidence interval.

Tests used:
[1] = folding stability dG unfold (combined trypsin and chymotrypsin); higher = more stable
In short: (§1)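 Digests were run with trypsin and chymotrypsin at 11 concentrations in threefold dilutions, plus a no-protease condition, on designed mini-proteins in a PA-tagged cDNA display construct. The mini-proteins were under 80 residues, had no cysteine, and were kept only when AlphaFold2 dimer inter-PAE was above 15. After sequencing, Bayesian fitting of the counts gave K50, from which unfolding free energy was derived against a sequence-predicted unfolded-state K50 and a shared folded-state K50, per protease or combined.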

[2] = folding stability dG unfold from trypsin proteolysis; higher = more stable
In short: as §1

[3] = folding stability dG unfold from chymotrypsin proteolysis; higher = more stable
In short: as §1

Sequence: SAGGSAISEEEPFVKIKVELESEPKEIILPKSDIVKIEVDEPDKIATIYLPSTGKFFPFKVLSVENSAGGSA [r15_495_TrMRF]
- folding stability dG unfold [1]: -0.0342 ± 0.27 kcal/mol
- folding stability dG unfold [2]: 0.332 ± 0.079 kcal/mol
- folding stability dG unfold [3]: -0.343 ± 0.44 kcal/mol

Sequence: SAGGSAITLEDLKNAEIVKPEVMPFPDNGMWMPTWKLRDPGNGKEFVFTFMYNPGNGEPQWSLVPVSAGGSA [r15_170_TrROS]
- folding stability dG unfold [1]: 1.2 ± 0.15 kcal/mol
- folding stability dG unfold [2]: 1.16 ± 0.053 kcal/mol
- folding stability dG unfold [3]: 1.36 ± 0.1 kcal/mol

Sequence: SAGGSAKAEEIAKLLKELGFKEVKIEKDKETNKVTITVKKKDGSEIKITIDKKTKKIVKIEIKPKKSAGGSA [r15_648_TrROS_Hall]
- folding stability dG unfold [1]: 1.99 ± 0.25 kcal/mol
- folding stability dG unfold [2]: 1.82 ± 0.067 kcal/mol
- folding stability dG unfold [3]: 1.78 ± 0.27 kcal/mol

Sequence: SAGGSAKDILDQLKISDVHESNGMRTITLEMPGNNLPPDEIREIFEELGYEVEINPKNGRITFTIPSAGGSA [r15_599_TrROS]
- folding stability dG unfold [1]: 1.95 ± 0.039 kcal/mol
- folding stability dG unfold [2]: 2.09 ± 0.051 kcal/mol
- folding stability dG unfold [3]: 1.83 ± 0.02 kcal/mol

Sequence: SAGGSAKEEIRLVIEVDGKLIEITIPKDKITKVEFDKETGKITITVKVNGKELKLVFTDGKAKLVESAGGSA [r15_598_TrROS_Hall]
- folding stability dG unfold [1]: 2.47 ± 0.17 kcal/mol
- folding stability dG unfold [2]: 2.27 ± 0.14 kcal/mol
- folding stability dG unfold [3]: 2.6 ± 0.12 kcal/mol

Sequence: SAGGSAKEIKAEVKVDPETGTVTVKVYYDGKLVAEATATVEPNGEIKEVNFFFEVDPETGKLIVTGSAGGSA [r15_770_TrMRF]
- folding stability dG unfold [1]: 2.97 ± 0.066 kcal/mol
- folding stability dG unfold [2]: 2.73 ± 0.12 kcal/mol
- folding stability dG unfold [3]: 3.07 ± 0.059 kcal/mol

Sequence: SAGGSAKEIKIEVVKVEYDKETKKVTVTLKIEVNGKKIEIKIEVDMTPEEVEEKVKKLAEELLKKLSAGGSA [r15_979_TrROS_Hall]
- folding stability dG unfold [1]: 3.14 ± 0.25 kcal/mol
- folding stability dG unfold [2]: 3.15 ± 0.2 kcal/mol
- folding stability dG unfold [3]: 3.03 ± 0.14 kcal/mol

Sequence: SAGGSAKEIKPGEKIKVRNKETGKWFEATVTEVKKLENGELYVKVEVTIDGKTYTVTIPLKDIEVVSAGGSA [r15_62_TrROS_Hall]
- folding stability dG unfold [1]: 4.88 ± 0.55 kcal/mol
- folding stability dG unfold [2]: 4.3 ± 0.37 kcal/mol
- folding stability dG unfold [3]: 4.72 ± 0.3 kcal/mol

Sequence: SAGGSAKEIKVEITYDPETNTITIKVYKDGKLVAEMTMKIEVNGKLIEVKVTLYLDPKTKKLVVKPSAGGSA [r15_770_TrROS_Hall]
- folding stability dG unfold [1]: 2.96 ± 0.13 kcal/mol
- folding stability dG unfold [2]: 1.94 ± 0.081 kcal/mol
- folding stability dG unfold [3]: 3.3 ± 0.048 kcal/mol

Sequence: SAGGSAKFKIVKIEKIEIEENGTIKIKVKLEDGSTFEIEIKVKIIPPPKPKKISLEELSEEERKKLSAGGSA [r15_41_TrROS_Hall]
- folding stability dG unfold [1]: 1.8 ± 0.13 kcal/mol
- folding stability dG unfold [2]: 1.29 ± 0.053 kcal/mol
- folding stability dG unfold [3]: 2.11 ± 0.097 kcal/mol

Sequence: SAGGSAKGPKTVTYEFKIKYGDKYYLIKVTVKLHEVKYDPKTKKYTLNLKPNDKLEIKVEIYELDDSAGGSA [r15_1040_TrMRF]
- folding stability dG unfold [1]: 3.7 ± 0.3 kcal/mol
- folding stability dG unfold [2]: 2.29 ± 0.26 kcal/mol
- folding stability dG unfold [3]: 4.09 ± 0.086 kcal/mol

Sequence: SAGGSAKIEIIKDPETGTYTIRLEKEIKPGQTLTITDENGETWKITSVSVEEVNGELYVTVKVEKVSAGGSA [r15_838_TrROS_Hall]
- folding stability dG unfold [1]: 3.19 ± 0.056 kcal/mol
- folding stability dG unfold [2]: 2.24 ± 0.048 kcal/mol
- folding stability dG unfold [3]: 3.542 ± 0.026 kcal/mol

Sequence: SAGGSAKIKIITENGEELEIEVETKEELEKAVEALKKLLPPDAEIEVEVVEKDGKLIVKIKVKKKPSAGGSA [r15_80_TrROS_Hall]
- folding stability dG unfold [1]: 1.85 ± 0.31 kcal/mol
- folding stability dG unfold [2]: 1.54 ± 0.13 kcal/mol
- folding stability dG unfold [3]: 2.17 ± 0.12 kcal/mol

Sequence: SAGGSAKIKITIEYDEETGEVRIKIEVDGKEYEITLSREELANMTIEELAKKLGVEIEEVEIYPVPSAGGSA [r15_801_TrROS_Hall]
- folding stability dG unfold [1]: 3.35 ± 0.3 kcal/mol
- folding stability dG unfold [2]: 3.35 ± 0.24 kcal/mol
- folding stability dG unfold [3]: 2.92 ± 0.28 kcal/mol

Sequence: SAGGSAKIRYIKVLLRFPPKGEKKIIVIPIENIPEDRPEELIELAKAIAEAFVEGTGAEVEGIEISSAGGSA [r15_1013_TrMRF]
- folding stability dG unfold [1]: 4.05 ± 0.13 kcal/mol
- folding stability dG unfold [2]: 4.34 ± 0.2 kcal/mol
- folding stability dG unfold [3]: 3.88 ± 0.072 kcal/mol

Sequence: SAGGSAKITVEVVVRSLEELEALVKALAPPGMEVEVKIVSVERRTVEVNGEKREVLVVRVEIEVKPSAGGSA [r15_95_TrROS_Hall]
- folding stability dG unfold [1]: 3.9 ± 0.33 kcal/mol
- folding stability dG unfold [2]: 4.61 ± 0.37 kcal/mol
- folding stability dG unfold [3]: 3.09 ± 0.17 kcal/mol

Sequence: SAGGSAKKKIIEIKIKVKTKEEAKEAIEKLSEELKKKIKKIEIVEIKEKDGEYYVKIKIEVPPNEKSAGGSA [r15_244_TrROS_Hall]
- folding stability dG unfold [1]: 2.25 ± 0.14 kcal/mol
- folding stability dG unfold [2]: 1.97 ± 0.063 kcal/mol
- folding stability dG unfold [3]: 2.32 ± 0.075 kcal/mol

Sequence: SAGGSAKKKTIELTIVIKIKKKPGETAEEIAKKILDALKKLLPPGAKIEIEVEVKDDYIVIKVKIESAGGSA [r15_739_TrROS_Hall]
- folding stability dG unfold [1]: 2.69 ± 0.13 kcal/mol
- folding stability dG unfold [2]: 2.49 ± 0.14 kcal/mol
- folding stability dG unfold [3]: 2.76 ± 0.09 kcal/mol

Sequence: SAGGSAKKLKITIVADSEEEARRLAEELARLLRELLPDGSELEVEIEVRVFRPPPPPLPSLEELLASAGGSA [r15_663_TrROS_Hall]
- folding stability dG unfold [1]: 3.49 ± 0.18 kcal/mol
- folding stability dG unfold [2]: 3.2 ± 0.21 kcal/mol
- folding stability dG unfold [3]: 3.83 ± 0.12 kcal/mol

Sequence: SAGGSAKKPKIKIKIKITNENGEKIEIEIEAETEEEALEAAKKLAEELAKKPNIKEVKIEITEIEPSAGGSA [r15_698_TrROS_Hall]
- folding stability dG unfold [1]: 2.07 ± 0.096 kcal/mol
- folding stability dG unfold [2]: 1.74 ± 0.067 kcal/mol
- folding stability dG unfold [3]: 2.19 ± 0.1 kcal/mol

Sequence: SAGGSAKKPKPIYLKLTITLSEEEAKKLAEELAEELKKLFPDVEIVEIKVEKDENGNVTVTIYVRLSAGGSA [r15_718_TrROS_Hall]
- folding stability dG unfold [1]: 4.25 ± 0.28 kcal/mol
- folding stability dG unfold [2]: 3.14 ± 0.22 kcal/mol
- folding stability dG unfold [3]: 4.57 ± 0.14 kcal/mol

Sequence: SAGGSAKKVEKVTVTVLIEKDGKLYLVRVTVTRPKVKYDKKTGKFTVTLKPGEKVEIKVEVVELPESAGGSA [r15_1040_TrROS_Hall]
- folding stability dG unfold [1]: 3.62 ± 0.24 kcal/mol
- folding stability dG unfold [2]: 2.65 ± 0.21 kcal/mol
- folding stability dG unfold [3]: 3.7 ± 0.12 kcal/mol

Sequence: SAGGSAKPNEKVKIRIINEDGEEIEIEVEVKPGEKIYLLENGEEVEVKPGEKIEFPPGAKILVEKVSAGGSA [r15_152_TrROS_Hall]
- folding stability dG unfold [1]: 1.1 ± 0.12 kcal/mol
- folding stability dG unfold [2]: 1.11 ± 0.034 kcal/mol
- folding stability dG unfold [3]: 1.07 ± 0.02 kcal/mol

Sequence: SAGGSAKPVKVDTLVLTAPFESKEEAEKAVEEFAKAVAEKLPKDVKVEVEVKYDPETKTFTAVVKASAGGSA [r15_981_TrMRF]
- folding stability dG unfold [1]: 2.34 ± 0.051 kcal/mol
- folding stability dG unfold [2]: 2.23 ± 0.093 kcal/mol
- folding stability dG unfold [3]: 2.368 ± 0.018 kcal/mol

Sequence: SAGGSAKRVITIGNDEDQERVQEEAEDNGVKKRPIPGDWDDFLSNLQDNFPEIDRIVIPNGREFEISAGGSA [r15_712_TrROS]
- folding stability dG unfold [1]: -0.953 ± 0.44 kcal/mol
- folding stability dG unfold [2]: -0.659 ± 0.32 kcal/mol
- folding stability dG unfold [3]: -1.27 ± 0.32 kcal/mol

Sequence: SAGGSAKRVIVIGSKEERERAREAAEKENLEVVEIEGPVEEALAKLKELFPEIDEIVIVLPEEEEESAGGSA [r15_712_TrROS_Hall]
- folding stability dG unfold [1]: 0.899 ± 0.19 kcal/mol
- folding stability dG unfold [2]: 0.68 ± 0.14 kcal/mol
- folding stability dG unfold [3]: 0.768 ± 0.14 kcal/mol

Sequence: SAGGSAKSLTLTVEITLPDGSTVRIEAEIEEKDGYLVIKVTIYNEDGEKVAEFTLVLKLPPPPPEPSAGGSA [r15_263_TrROS_Hall]
- folding stability dG unfold [1]: 3.76 ± 0.66 kcal/mol
- folding stability dG unfold [2]: 2.84 ± 0.47 kcal/mol
- folding stability dG unfold [3]: 4.42 ± 0.2 kcal/mol

Sequence: SAGGSAKTIEITLEDGSKVTITEVKDGYIRIYVSEEAKEALKKLGLEEVDEENNVITLPLEKLKKLSAGGSA [r15_984_TrROS_Hall]
- folding stability dG unfold [1]: 1.62 ± 0.1 kcal/mol
- folding stability dG unfold [2]: 1.22 ± 0.052 kcal/mol
- folding stability dG unfold [3]: 1.86 ± 0.045 kcal/mol

Sequence: SAGGSAKTITIEVKVEKTKDGKIKKGEIVKVEIEVDEKTKKVKIKIYNKNGELIAEIEIELSPEDLSAGGSA [r15_134_TrROS_Hall]
- folding stability dG unfold [1]: 2.81 ± 0.39 kcal/mol
- folding stability dG unfold [2]: 1.34 ± 0.21 kcal/mol
- folding stability dG unfold [3]: 2.95 ± 0.16 kcal/mol

Sequence: SAGGSAKVKIIVTYNDGKKEEIIFDIPENYEISEVEKIAKKIAKNIAKKKNLPNVNIKVEKIEPLESAGGSA [r15_463_TrMRF]
- folding stability dG unfold [1]: 3.09 ± 0.074 kcal/mol
- folding stability dG unfold [2]: 2.41 ± 0.047 kcal/mol
- folding stability dG unfold [3]: 3.39 ± 0.06 kcal/mol

Sequence: SAGGSAKWVLVRIELEKGGKPLEFYQRVKAKEPELDIKIPPGIEEEGFKILRIEVEEISPEELEKESAGGSA [r15_853_TrMRF]
- folding stability dG unfold [1]: 1.18 ± 0.15 kcal/mol
- folding stability dG unfold [2]: 0.864 ± 0.04 kcal/mol
- folding stability dG unfold [3]: 1.32 ± 0.18 kcal/mol

Sequence: SAGGSALDPGKPVRVTVNLRVYRPLPDGTVKTFPSATVDLPVEEVLDLAKALPKEYTVTVDSIVVDSAGGSA [r15_833_TrMRF]
- folding stability dG unfold [1]: 0.513 ± 0.18 kcal/mol
- folding stability dG unfold [2]: 0.249 ± 0.14 kcal/mol
- folding stability dG unfold [3]: 0.663 ± 0.17 kcal/mol

Sequence: SAGGSALEVKPGAGNTLTVYTPLPEDIPISEVIEELKKKYPNITAETDETSDGVAVVTLTLPPGLGSAGGSA [r15_1047_JUSTAS]
- folding stability dG unfold [1]: 0.724 ± 0.12 kcal/mol
- folding stability dG unfold [2]: 0.984 ± 0.051 kcal/mol
- folding stability dG unfold [3]: 0.401 ± 0.25 kcal/mol

Sequence: SAGGSALKDFPLEEVEKVILVDLPDGKPALLVLLKGPPVVVLYPLESGKPIFIDAPLEEVLEFLLSSAGGSA [r15_810_TrMRF]
- folding stability dG unfold [1]: 2.83 ± 0.044 kcal/mol
- folding stability dG unfold [2]: 2.68 ± 0.05 kcal/mol
- folding stability dG unfold [3]: 2.892 ± 0.014 kcal/mol

Sequence: SAGGSALKIHPDEKVLVKLKNTKKPVEAKVVKVEKLPNNKWVFYVEVKLNGKKVKIPVDGKDVVVASAGGSA [r15_62_TrMRF]
- folding stability dG unfold [1]: 2.45 ± 0.23 kcal/mol
- folding stability dG unfold [2]: 2.55 ± 0.2 kcal/mol
- folding stability dG unfold [3]: 2.38 ± 0.07 kcal/mol
